Test results reported in a protein production outcome set (Wang et al. 2014).

Experiment: label from the status in PepcDB records

MSLASFPHRNLTWNDINFVHTTDTHGWYSGHINQPLYHANWGDFISFTTHMRRIAHSRNQDLLLIDSGDRHDGNGLSDITSPNGLKSTPIFIKQDYDLLTIGNHELYLWENSKQEYETVVNHFQDKYVCSNVDIRLDNGLFVPLGLKYKYFTTPIRGIRVMAFGFLFDFKRFNSGTRVTPMAETIHEPWFQEALKHEVDLIIIVGHTPISHNWGEFYQVHQYLRQFFPDTIIQYFGGHSHIRDFTVFDSLSTGLQSGRYCETVGWTSVNLDKADLNLPVRQRFSRSYIDFNTDSFKYHTNLDKEFDTAKGKLVSKLIRETRKELKLDTLIGYVKTNYYVDYVPIDHPKSIFNLLALKILKTLPKSKHEERITIINTGSIRYDLYKGPYTIDSKFIVSPFENIWVNITVPKSVATKVAAKLNDADYISASRLKPPHQYDLQVQDLSTSPHQAHFEMQEKLPKGYVTHDDFGADGDDTLHRAVVNFPVPNVIQSVEINDEVDSPVNLVFYSFITPNIIWALKELNFSTEQVPTPYSDIYLGTLLNEFVANNEGHHHHHH
protein production: not failed

MSLMLSHNPIVEPFALAHATIVTGDKAGTILRNMTIVVGADGRIEQVAPSIETSIPAEYHYLDGTGKIVMPGLINAHTHLFSQGKPLNPKLATPKGQRMVATFAHSPLGKPYMAATVKHNATTLLESGVTTIRTLGDVGYEVVTLRDQIDAGQILGPRILASGPLMAIPEGHGAPLIALTSGTPEEARTAVAQNLKAGVNAIKIAATGGVTDAQEIGEAGSPQMSVEQMRAICDEAHQYGVIVGAHAQSPEGVRRSLLAGVDTIEHGSVLDDELIGMFRHNPNALRGYSALIPTLSAGLPLTLLGQDVTGITDIQLENSKNVVGGMVSGARQAHEAGLMIGVGTDTGMTFVPQYATWRELELLVAYAGFSPAEALHAATAVNASILGVDAETGSLEVGKSADLLVLNANPLDDLRALEHPALVIAAGHPVWRPGPKRFADIDALLDEAYAEGHHHHHH
protein production: not failed

MWHIFERFVNEYERWFLVHRFAYLSELQAVKCLLPEGRGVEIGVGTGRFAVPLKIKIGVEPSERMAEIARKRGVFVLKGTAENLPLKDESFDFALMVTTICFVDDPERALKEAYRILKKGGYLIVGIVDRESFLGREYEKNKEKSVFYKNARFFSTEELMDLMRKAGFEEFKVVQTLFKHPSELSEIEPVKEGYGEGAFVVIRGTKK
protein production: not failed

MSKVNEITRESWILSTFPEWGTWLNEEIEQTVVEPNTFSMWWLGCTGIWLKSAGNTNLSIDFWCGTGKKTQKNRLMNTQHQMMRMGGVEALQPNLRTSIFPLDPFAIKEIDAVLASHDHADHIDVNVAAAVLQNCGEHVKFIGPQACVDLWLGWGVPQERCIVAKVGDVLEIGDVKIRVLDSFDRTALVTLPKGVSSYDKAILDGMDERAVNYLIETSGGSVYHSGDSHYSNYYAKHGNDYQIDVALLSYGENPRGVTDKMTSSDVLRAAESLDCQVVVPFHHDIWANFQNDPREIEVLWNMKKDRLQYQFAPFFWQVGGKYTYPTDKGRMHYQHFRGFQDIFKNEPELPYKAFL
protein production: not failed

MPTVKKLTKQVVDGLPTPATGQAFHWCSVTPGFAVRVTASGAKSYIVQGRVNSKTCRYTIGPCELLGTDEARKRALARLLEMHDGMNPQVERKRRQAQGVTLREVMEDYVENKRTKHGTLRDSSQADIKRCVTQHLADWADKPVASITREACVKRFRELSATAPTTANQVFRNLRALCNWARETNVAPDGSYPILPINPVVQAFKSVTWNKEVTREEFVPLAKVGAVWNMLAERSNAQIYTTADVTAAHLVMFLILTGARIGEGSALHWKDVRLDDEVPSFTFTQTKNHNEVTIPLSTQLHALLAARYSARRPDEEYVFPSRTGTREPHMQDARGTMQRVSKIAGLHLHNHDLRRTFLAIAIECGVEMWKAEILTNHLPQTVTLKHYTQTRDLRYLQADTQRVADWITKQAQVASGQNVVALRA
protein production: failed

STRPVGGTEYSWCRAIDGGTGIAVIALLLSRTPKLQNLQNTLDKLQIYHPTLRSNIRFDASANSFSFVVTSAADSHVEIHPFDSVSTAQIIRDSDDPCADPHRIILEHEMNKNTWINPHRWIKSESRVFIVSLYDLTDDGEQRILTFRLNTAAVDRTAAVTLLREFMKETAADGFGNGPVVAATETAVGLGKAIEELIPSGKGDKPFWARGIDVLGYSLNAFRFSNLNFVDAENSNRRSQLVRLKLDRDQTLKLVAGCKARGLKLWAALASSALIAAYSSKNLPPYQGEKYAVVTLSDCRSILEPPLTSNDFGFYHAGILHTHDLTGEEKLWDLAKRCYDSFTSSKNSNKQFTDMSDLNFLMCKAIENPNLTPSSSLRTAFISIFEDPVIDESPEPELASLGVQDYIGCASIHGVGPSVAVFDALRDGKLDCAFVYPSPLHSREQMDGLIQHMKTILLEGSASSF
protein production: not failed
